Test results from patent US20200129639A1 (Seagen, published 2020).

Biological target: T1, CD19 (UniProt P15391 20-556, limits assumed)
T1 sequence (looked up): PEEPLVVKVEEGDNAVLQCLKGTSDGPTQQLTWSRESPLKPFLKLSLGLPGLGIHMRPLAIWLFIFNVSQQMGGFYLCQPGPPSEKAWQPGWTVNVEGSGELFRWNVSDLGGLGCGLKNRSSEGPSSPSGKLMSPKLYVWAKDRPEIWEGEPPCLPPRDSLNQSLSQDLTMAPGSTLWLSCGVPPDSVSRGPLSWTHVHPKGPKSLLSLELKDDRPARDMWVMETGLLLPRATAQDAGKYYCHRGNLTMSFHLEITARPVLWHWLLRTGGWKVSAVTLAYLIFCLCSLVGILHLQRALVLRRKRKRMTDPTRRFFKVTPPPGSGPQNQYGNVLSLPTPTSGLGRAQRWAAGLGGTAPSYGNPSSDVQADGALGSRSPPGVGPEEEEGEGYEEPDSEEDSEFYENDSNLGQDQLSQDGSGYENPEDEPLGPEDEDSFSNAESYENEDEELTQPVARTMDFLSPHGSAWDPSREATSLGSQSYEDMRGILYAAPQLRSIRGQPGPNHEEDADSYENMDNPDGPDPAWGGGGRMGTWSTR
Assay: cell-based or functional assay

B1: hBU12 co-conjugate (2 drugs on 1 ADC) (antibody, V domains shown)
VH: QVQLQESGPGLVKPSQTLSLTCTVSGGSISTSGMGVGWIRQHPGKGLEWIGHIWWDDDKRYNPALKSRVTISVDTSKNQFSLKLSSVTAADTAVYYCARMELWSYYFDYWGQGTLVTVSS
VL: EIVLTQSPATLSLSPGERATLSCSASSSVSYMHWYQQKPGQAPRLLIYDTSKLASGIPARFSGSGSGTDFTLTISSLEPEDVAVYYCFQGSVYPFTFGQGTKLEIKR
Co-Conjugate IC50 (ng/mL), cytotoxicity on Granta-519 cells: 3 ng/mL | Co-Conjugate IC50 (ng/mL), cytotoxicity on SU-DHL-16 cells: 0.2 ng/mL
